Test results from paper PMC4005696, “Type III restriction endonucleases are heterotrimeric: comprising one helicase–nuclease subunit and a dimeric methyltransferase that binds only one specific DNA” (Nucleic Acids Research, 2014).

Legend:
[1] = target: T1, EcoP15I Res subunit (commercial enzyme from New England Biolabs) (Escherichia coli, UniProt Q5ZND2 1-970); assay: SEC-MALS; 0.5–1.0 mg/ml (1.25–2.5 µM) enzyme, Superdex 200, Standard Assay Buffer minus BSA (50 mM Tris–HCl pH 8.0, 50 mM KCl, 10 mM MgCl2, 1 mM DTT), room temperature; enzyme alone or with excess Hex-labelled specific 50-mer DNA, with or without 1 mM ATP; conditions: both partners purified
T1 construct: Res subunit of the Type III restriction endonuclease EcoP15I, Escherichia coli; also called EcoP15I NEB; commercially available EcoP15I; source: bought: NEB (catalogue no. R0646S)
T1 sequence (looked up): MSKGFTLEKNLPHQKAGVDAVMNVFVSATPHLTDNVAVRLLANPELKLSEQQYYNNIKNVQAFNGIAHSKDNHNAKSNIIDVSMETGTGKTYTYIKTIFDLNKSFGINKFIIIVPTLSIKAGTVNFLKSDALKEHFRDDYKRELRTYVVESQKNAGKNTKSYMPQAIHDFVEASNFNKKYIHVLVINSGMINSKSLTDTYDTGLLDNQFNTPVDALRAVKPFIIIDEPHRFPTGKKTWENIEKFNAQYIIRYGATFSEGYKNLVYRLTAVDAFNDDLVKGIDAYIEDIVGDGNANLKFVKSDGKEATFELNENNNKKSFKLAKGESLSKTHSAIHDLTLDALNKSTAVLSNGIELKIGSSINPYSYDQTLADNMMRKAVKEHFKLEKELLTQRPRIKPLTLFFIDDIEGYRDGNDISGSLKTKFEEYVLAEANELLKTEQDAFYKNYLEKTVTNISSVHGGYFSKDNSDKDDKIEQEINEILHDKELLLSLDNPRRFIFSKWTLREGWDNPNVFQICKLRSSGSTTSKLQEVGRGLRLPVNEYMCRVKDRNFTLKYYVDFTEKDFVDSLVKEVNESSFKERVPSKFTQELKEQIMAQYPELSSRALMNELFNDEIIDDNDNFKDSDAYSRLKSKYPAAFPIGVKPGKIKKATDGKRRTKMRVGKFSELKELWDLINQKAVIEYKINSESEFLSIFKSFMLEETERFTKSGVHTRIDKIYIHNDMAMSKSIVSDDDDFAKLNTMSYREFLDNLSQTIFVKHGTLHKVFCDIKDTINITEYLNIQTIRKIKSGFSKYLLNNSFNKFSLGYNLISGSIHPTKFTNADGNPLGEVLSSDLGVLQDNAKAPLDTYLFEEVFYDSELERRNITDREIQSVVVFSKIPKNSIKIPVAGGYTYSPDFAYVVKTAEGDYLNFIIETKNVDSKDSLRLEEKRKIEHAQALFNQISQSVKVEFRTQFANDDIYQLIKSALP

[2] = target: T2, EcoPI holoenzyme (Res1Mod2) (Escherichia coli, UniProt P08764;P08763 1-970;1-646); assay: native MS; no ATP; 1:1 complex 288.1 kDa; SEC-MALS: 50 mM Tris-HCl pH 8.0, 50 mM KCl, 10 mM MgCl2, 1 mM DTT, 0.1 mg/ml BSA (Standard Assay Buffer), 20 C; native MS: volatile ammonium acetate buffer, enzyme:DNA 1:2; conditions: protein: recombinant; tags: none; copies: 1;2
T2 sequence (P08764 whole entry, one chain of several): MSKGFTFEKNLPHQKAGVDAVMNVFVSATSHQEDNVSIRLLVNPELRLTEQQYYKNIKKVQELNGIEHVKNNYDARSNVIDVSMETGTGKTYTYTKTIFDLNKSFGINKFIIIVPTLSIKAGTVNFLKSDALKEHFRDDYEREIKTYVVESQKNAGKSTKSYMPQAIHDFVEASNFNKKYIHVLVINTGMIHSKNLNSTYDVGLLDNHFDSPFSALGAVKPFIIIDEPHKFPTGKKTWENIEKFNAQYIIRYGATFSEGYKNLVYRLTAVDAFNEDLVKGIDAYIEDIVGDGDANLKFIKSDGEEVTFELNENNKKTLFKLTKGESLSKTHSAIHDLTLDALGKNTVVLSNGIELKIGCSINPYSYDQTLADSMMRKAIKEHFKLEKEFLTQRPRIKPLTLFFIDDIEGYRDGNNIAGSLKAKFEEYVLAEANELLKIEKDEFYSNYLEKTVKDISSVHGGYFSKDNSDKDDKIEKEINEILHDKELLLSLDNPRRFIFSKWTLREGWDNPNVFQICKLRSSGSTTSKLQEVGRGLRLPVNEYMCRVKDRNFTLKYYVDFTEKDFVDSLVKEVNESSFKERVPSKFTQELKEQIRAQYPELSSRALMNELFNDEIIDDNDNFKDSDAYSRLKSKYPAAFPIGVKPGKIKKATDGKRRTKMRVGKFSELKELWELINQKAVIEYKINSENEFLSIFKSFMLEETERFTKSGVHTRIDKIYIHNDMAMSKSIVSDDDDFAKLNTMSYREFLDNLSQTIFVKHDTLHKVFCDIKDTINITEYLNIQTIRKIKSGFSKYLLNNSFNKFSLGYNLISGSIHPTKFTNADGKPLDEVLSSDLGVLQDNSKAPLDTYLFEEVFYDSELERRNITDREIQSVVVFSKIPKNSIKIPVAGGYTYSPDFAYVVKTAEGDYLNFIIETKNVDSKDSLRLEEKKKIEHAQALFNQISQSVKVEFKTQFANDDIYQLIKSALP

[3] = target: T2, EcoPI holoenzyme (Res1Mod2); assay: SEC-MALS; 10 mM Mg2+, no ATP; 1:1 Res1Mod2:DNA; SEC-MALS: 50 mM Tris-HCl pH 8.0, 50 mM KCl, 10 mM MgCl2, 1 mM DTT, 0.1 mg/ml BSA (Standard Assay Buffer), 20 C; native MS: volatile ammonium acetate buffer, enzyme:DNA 1:2; conditions: protein: recombinant; tags: none; copies: 1;2; label: 5'-Hex (12C linker) on top strand

B1: EcoP15I Mod subunit (commercial enzyme from New England Biolabs) (enzyme, Escherichia coli, UniProt P12364 1-644, looked up)
chain: MKKETIFSEVETANSKQLAVLKANFPQCFDKNGAFIQEKLLEIIRASEVELSKESYSLNWLGKSYARLLANLPPKTLLAEDKTHNQQEENKNSQHLLIKGDNLEVLKHMVNAYAEKVKMIYIDPPYNTGKDGFVYNDDRKFTPEQLSELAGIDLDEAKRILEFTTKGSSSHSAWLTFIYPRLYIARELMREDGTIFISIDHNEFSQLKLVCDEIFGEQNHVGDLVWKNATDNNPSNIAVEHEYIIVYTKNKEQLISEWKSNISDVKNLLVNIGEEFASKYTGNELQEKYTQWFREHRSELWPLDRYKYIDKDGIYTGSQSVHNPGKEGYRYDIIHPKTKKPCKQPLMGYRFPLDTMDRLLSEEKIIFGDDENKIIELKVYAKDYKQKLSSVIHLDGRVATNELKELFPEMTQPFTNAKTIKLVEDLISFACDGEGIVLDFFAGSGTTAHTVFNLNNKNKTSYQFITVQLDEPTKDKSDAMKHGYNTIFDLTKERLIRASKKNRDQGFKVYQLMPDFRAKDESELTLSNHTFFDDVVLTPEQYDTLLTTWCLYDGSLLTTPIEDVDLGGYKAHLCDGRLYLIAPNFTSEALKALLQKVDSDKDFAPNKVVFYGSNFESAKQMELNEALKSYANKKSIELDLVVRN
notes: Mod subunit of the Type III restriction endonuclease EcoP15I, Escherichia coli; also called EcoP15I NEB; commercially available EcoP15I; source: bought: NEB (catalogue no. R0646S)
stoichiometry N [1]: 2 Mod per Res

B2: EcoPI specific 50-mer duplex (sDNA), native MS (dsDNA)
DNA 1: TGGCTTAGACCCAGCGCAGATACCAAAACTGTCCTTCTATTGACAATTCG
DNA 2: CGAATTGTCAATAGAAGGACAGTTTTGGTATCTGCGCTGGGTCTAAGCCA
binding result [2]: binds

B3: EcoPI specific 50-mer duplex (sDNA), Hex (dsDNA)
DNA 1: TGGCTTAGACCCAGCGCAGATACCAAAACTGTCCTTCTATTGACAATTCG
DNA 2: CGAATTGTCAATAGAAGGACAGTTTTGGTATCTGCGCTGGGTCTAAGCCA
binding result [3]: binds
